Experimental data published in US20120237528A1 (Janssen / Centocor, published 2012).

What was measured:
[1] = molecular target: Innovin, lyophilized recombinant human tissue factor combined with phospholipids (human, UniProt P13726 33-295, limits assumed); experiment: cell-based or functional assay; also: test concentration or dose not given here
[2] = molecular target: T1, recombinant extracellular domain (ECD) of human TF, amino acid 1-219 of the mature chain, C-terminal His6-tag (human, UniProt P13726 33-251); experiment: Biacore
T1 construct: expressed in a mammalian system; used for ELISA and Biacore; biotinylated by NHS-ester for the Fab ELISA; also called His6-TF-ECD1-219; HumanTF1-219

T½ Max (seconds), coagulation of human plasma [1] | Kd [2] | koff [2] | kon [2] | Binder
189 s | 0.42 nM | 0.0001 s⁻¹ | 239000 M⁻¹ s⁻¹ | M1583 (antibody, V domains shown, complete MAb; FR4 is its own entry; also called H177/L3) VH: EVQLVQSGAEVKKPGESLRISCKGSGYTFGPYWIEWVRQMPGKGLEWMGDIIPGSGWTNYSPSFQGHVTISADKSISTAYLQWSSLKASDTAMYYCARSGYYGNSGFAYWGQGTLVTVSS VL: DIVMTQTPLSLPVTPGEPASISCKSSQSLLSSGNQKNYLTWYLQKPGQSPQLLIYWASTRESGVPDRFSGSGSGTDFTLKISRVEAEDVGVYYCQNDYTYPLTFGQGTKLEIK
165 s | 0.35 nM | 4.3e-05 s⁻¹ | 124000 M⁻¹ s⁻¹ | M1594 (antibody, V domains shown, complete MAb; FR4 is its own entry; also called H158/L3) VH: EVQLVQSGAEVKKPGESLRISCKGSGYTFPPYWIEWVRQMPGKGLEWMGDILPGTGYTVYSPSFQGHVTISADKSISTAYLQWSSLKASDTAMYYCARSGYYGNSGFAYWGQGTLVTVSS VL: DIVMTQTPLSLPVTPGEPASISCKSSQSLLSSGNQKNYLTWYLQKPGQSPQLLIYWASTRESGVPDRFSGSGSGTDFTLKISRVEAEDVGVYYCQNDYTYPLTFGQGTKLEIK
163 s | 0.33 nM | 4.3e-05 s⁻¹ | 131000 M⁻¹ s⁻¹ | M1596 (antibody, V domains shown, complete MAb; FR4 is its own entry; also called H185/L3) VH: EVQLVQSGAEVKKPGESLRISCKGSGYTFTPYWIEWVRQMPGKGLEWMGDILPGSGHTTYSPSFQGHVTISADKSISTAYLQWSSLKASDTAMYYCARSGYYGNSGFAYWGQGTLVTVSS VL: DIVMTQTPLSLPVTPGEPASISCKSSQSLLSSGNQKNYLTWYLQKPGQSPQLLIYWASTRESGVPDRFSGSGSGTDFTLKISRVEAEDVGVYYCQNDYTYPLTFGQGTKLEIK
157 s | 0.8 nM | 6.6e-05 s⁻¹ | 83400 M⁻¹ s⁻¹ | M1597 (antibody, V domains shown, complete MAb; FR4 is its own entry; also called H134/L3) VH: EVQLVQSGAEVKKPGESLRISCKGSGYTFSSYWIEWVRQMPGKGLEWMGDILPGTGATHYSPSFQGHVTISADKSISTAYLQWSSLKASDTAMYYCARSGYYGNSGFAYWGQGTLVTVSS VL: DIVMTQTPLSLPVTPGEPASISCKSSQSLLSSGNQKNYLTWYLQKPGQSPQLLIYWASTRESGVPDRFSGSGSGTDFTLKISRVEAEDVGVYYCQNDYTYPLTFGQGTKLEIK
200 s | 0.78 nM | 0.000143 s⁻¹ | 184000 M⁻¹ s⁻¹ | M1586 (antibody, V domains shown, complete MAb; FR4 is its own entry; also called H164/L3) VH: EVQLVQSGAEVKKPGESLRISCKGSGYTFPTYWIEWVRQMPGKGLEWMGDIIPGTGWTNYSPSFQGHVTISADKSISTAYLQWSSLKASDTAMYYCARSGYYGNSGFAYWGQGTLVTVSS VL: DIVMTQTPLSLPVTPGEPASISCKSSQSLLSSGNQKNYLTWYLQKPGQSPQLLIYWASTRESGVPDRFSGSGSGTDFTLKISRVEAEDVGVYYCQNDYTYPLTFGQGTKLEIK
155 s | 0.33 nM | 6.3e-05 s⁻¹ | 192000 M⁻¹ s⁻¹ | M1598 (antibody, V domains shown, complete MAb; FR4 is its own entry; also called H137/L3) VH: EVQLVQSGAEVKKPGESLRISCKGSGYTFTPYWIEWVRQMPGKGLEWMGDILPGTGYTVYSPSFQGHVTISADKSISTAYLQWSSLKASDTAMYYCARSGYYGNSGFAYWGQGTLVTVSS VL: DIVMTQTPLSLPVTPGEPASISCKSSQSLLSSGNQKNYLTWYLQKPGQSPQLLIYWASTRESGVPDRFSGSGSGTDFTLKISRVEAEDVGVYYCQNDYTYPLTFGQGTKLEIK
202 s | – | – | – | M1587 (antibody, V domains shown) VH: EVQLVQSGAEVKKPGESLRISCKGSGYTFIPYWIEWVRQMPGKGLEWMGDILPGSGFTTYSPSFQGHVTISADKSISTAYLQWSSLKASDTAMYYCARSGYYGNSGFAYWGQGTLVTVSS VL: DIVMTQTPLSLPVTPGEPASISCKSSQSLLSSGNQKNYLTWYLQKPGQSPQLLIYWASTRESGVPDRFSGSGSGTDFTLKISRVEAEDVGVYYCQNDYTYPLTFGQGTKLEIK
180 s | 0.69 nM | 0.000109 s⁻¹ | 159000 M⁻¹ s⁻¹ | M1590 (antibody, V domains shown, complete MAb; FR4 is its own entry; also called H117/L3) VH: EVQLVQSGAEVKKPGESLRISCKGSGYTFLPYWIEWVRQMPGKGLEWMGDIIPGTGFTNYSPSFQGHVTISADKSISTAYLQWSSLKASDTAMYYCARSGYYGNSGFAYWGQGTLVTVSS VL: DIVMTQTPLSLPVTPGEPASISCKSSQSLLSSGNQKNYLTWYLQKPGQSPQLLIYWASTRESGVPDRFSGSGSGTDFTLKISRVEAEDVGVYYCQNDYTYPLTFGQGTKLEIK
163 s | 0.39 nM | 6.8e-05 s⁻¹ | 176000 M⁻¹ s⁻¹ | M1595 (antibody, V domains shown, complete MAb; FR4 is its own entry; also called H160/L3) VH: EVQLVQSGAEVKKPGESLRISCKGSGYTFYPYWIEWVRQMPGKGLEWMGDILPGTGFTNYSPSFQGHVTISADKSISTAYLQWSSLKASDTAMYYCARSGYYGNSGFAYWGQGTLVTVSS VL: DIVMTQTPLSLPVTPGEPASISCKSSQSLLSSGNQKNYLTWYLQKPGQSPQLLIYWASTRESGVPDRFSGSGSGTDFTLKISRVEAEDVGVYYCQNDYTYPLTFGQGTKLEIK
154 s | 0.41 nM | 5.6e-05 s⁻¹ | 134000 M⁻¹ s⁻¹ | M1591 (antibody, V domains shown, complete MAb; FR4 is its own entry; also called H122/L3) VH: EVQLVQSGAEVKKPGESLRISCKGSGYTFRPYWIEWVRQMPGKGLEWMGDIIPGTGYTNYSPSFQGHVTISADKSISTAYLQWSSLKASDTAMYYCARSGYYGNSGFAYWGQGTLVTVSS VL: DIVMTQTPLSLPVTPGEPASISCKSSQSLLSSGNQKNYLTWYLQKPGQSPQLLIYWASTRESGVPDRFSGSGSGTDFTLKISRVEAEDVGVYYCQNDYTYPLTFGQGTKLEIK
– | 0.17 nM | – | – | M1649 (antibody, V domains shown, complete MAb; FR4 is its own entry; also called H171/L335) VH: EVQLVQSGAEVKKPGESLRISCKGSGYTFAPYWIEWVRQMPGKGLEWMGDILPGTGFTTYSPSFQGHVTISADKSISTAYLQWSSLKASDTAMYYCARSGYYGNSGFAYWGQGTLVTVSS VL: DIVMTQTPLSLPVTPGEPASISCKSSQSLLFSANQRNYLTWYLQKPGQSPQLLIYWASTRDSGVPDRFSGSGSGTDFTLKISRVEAEDVGVYYCQNDDTYPLTFGQGTKLEIK
205 s | 0.49 nM | 9e-05 s⁻¹ | 185000 M⁻¹ s⁻¹ | M1585 (antibody, V domains shown, complete MAb; FR4 is its own entry; also called H139/L3) VH: EVQLVQSGAEVKKPGESLRISCKGSGYTFSPFWIEWVRQMPGKGLEWMGDIIPGTGYTNYSPSFQGHVTISADKSISTAYLQWSSLKASDTAMYYCARSGYYGNSGFAYWGQGTLVTVSS VL: DIVMTQTPLSLPVTPGEPASISCKSSQSLLSSGNQKNYLTWYLQKPGQSPQLLIYWASTRESGVPDRFSGSGSGTDFTLKISRVEAEDVGVYYCQNDYTYPLTFGQGTKLEIK
– | 0.11 nM | – | – | M1652 (antibody, V domains shown, complete MAb; FR4 is its own entry; also called H171/L225) VH: EVQLVQSGAEVKKPGESLRISCKGSGYTFAPYWIEWVRQMPGKGLEWMGDILPGTGFTTYSPSFQGHVTISADKSISTAYLQWSSLKASDTAMYYCARSGYYGNSGFAYWGQGTLVTVSS VL: DIVMTQTPLSLPVTPGEPASISCKSSQSLLFRPTQKNYLTWYLQKPGQSPQLLIYWASTRESGVPDRFSGSGSGTDFTLKISRVEAEDVGVYYCQNDDSYPLTFGQGTKLEIK
– | 0.19 nM | – | – | M1651 (antibody, V domains shown, complete MAb; FR4 is its own entry; also called H171/L162) VH: EVQLVQSGAEVKKPGESLRISCKGSGYTFAPYWIEWVRQMPGKGLEWMGDILPGTGFTTYSPSFQGHVTISADKSISTAYLQWSSLKASDTAMYYCARSGYYGNSGFAYWGQGTLVTVSS VL: DIVMTQTPLSLPVTPGEPASISCKSSQSLLYVYGQKNYLTWYLQKPGQSPQLLIYWASTRESGVPDRFSGSGSGTDFTLKISRVEAEDVGVYYCQNDFSWPLTFGQGTKLEIK
207 s | 0.35 nM | 6e-05 s⁻¹ | 173000 M⁻¹ s⁻¹ | M1588 (antibody, V domains shown, complete MAb; FR4 is its own entry; also called H179/L3) VH: EVQLVQSGAEVKKPGESLRISCKGSGYTFGPFWIEWVRQMPGKGLEWMGDILPGSGYTNYSPSFQGHVTISADKSISTAYLQWSSLKASDTAMYYCARSGYYGNSGFAYWGQGTLVTVSS VL: DIVMTQTPLSLPVTPGEPASISCKSSQSLLSSGNQKNYLTWYLQKPGQSPQLLIYWASTRESGVPDRFSGSGSGTDFTLKISRVEAEDVGVYYCQNDYTYPLTFGQGTKLEIK
– | 0.16 nM | – | – | M1653 (antibody, V domains shown, complete MAb; FR4 is its own entry; also called H171/L283) VH: EVQLVQSGAEVKKPGESLRISCKGSGYTFAPYWIEWVRQMPGKGLEWMGDILPGTGFTTYSPSFQGHVTISADKSISTAYLQWSSLKASDTAMYYCARSGYYGNSGFAYWGQGTLVTVSS VL: DIVMTQTPLSLPVTPGEPASISCKSSQSLLYTSNQKNYLTWYLQKPGQSPQLLIYWASTRESGVPDRFSGSGSGTDFTLKISRVEAEDVGVYYCQNDDYWPLTFGQGTKLEIK
202 s | 0.4 nM | 7e-05 s⁻¹ | 174000 M⁻¹ s⁻¹ | M1589 (antibody, V domains shown, complete MAb; FR4 is its own entry; also called H187/L3) VH: EVQLVQSGAEVKKPGESLRISCKGSGYTFGPHWIEWVRQMPGKGLEWMGDILPGTGYTNYSPSFQGHVTISADKSISTAYLQWSSLKASDTAMYYCARSGYYGNSGFAYWGQGTLVTVSS VL: DIVMTQTPLSLPVTPGEPASISCKSSQSLLSSGNQKNYLTWYLQKPGQSPQLLIYWASTRESGVPDRFSGSGSGTDFTLKISRVEAEDVGVYYCQNDYTYPLTFGQGTKLEIK
163 s | 0.4 nM | 7.7e-05 s⁻¹ | 191000 M⁻¹ s⁻¹ | M1592 (antibody, V domains shown, complete MAb; FR4 is its own entry; also called H165/L3) VH: EVQLVQSGAEVKKPGESLRISCKGSGYTFSPHWIEWVRQMPGKGLEWMGDILPGSGYTIYSPSFQGHVTISADKSISTAYLQWSSLKASDTAMYYCARSGYYGNSGFAYWGQGTLVTVSS VL: DIVMTQTPLSLPVTPGEPASISCKSSQSLLSSGNQKNYLTWYLQKPGQSPQLLIYWASTRESGVPDRFSGSGSGTDFTLKISRVEAEDVGVYYCQNDYTYPLTFGQGTKLEIK
– | 0.19 nM | – | – | M1646 (antibody, V domains shown, complete MAb; FR4 is its own entry; also called H171/L138) VH: EVQLVQSGAEVKKPGESLRISCKGSGYTFAPYWIEWVRQMPGKGLEWMGDILPGTGFTTYSPSFQGHVTISADKSISTAYLQWSSLKASDTAMYYCARSGYYGNSGFAYWGQGTLVTVSS VL: DIVMTQTPLSLPVTPGEPASISCKSSQSLLWFVNQKNYLTWYLQKPGQSPQLLIYHASTRESGVPDRFSGSGSGTDFTLKISRVEAEDVGVYYCQNDDSYPLTFGQGTKLEIK
